PMC8971466

Test: SEC; SE-HPLC, TSK-gel SuperSW3000; 0.1 M phosphate, 0.1 M potassium sulfate pH 6.7; scFv at 0.1 mg/mL, 25 °C, 0.3 mL/min; monomer and dimer peaks told by molecular weight standards, percentages from peak areas

Work on “L1, anti-VEGF scFv derived from bevacizumab with non-repetitive linker” yielded a Monomer/dimer ratio (monomer %) of 95.7%.
